Publication PMC2517623

Target: Crm1 (Xpo1) (UniProt P30822)
Experiment: biotin-peptide streptavidin pulldown, stained gel

## Ace2 122-150 (from UniProt P21192) pS122 peptide
reference: unphosphorylated 122-150 peptide, sites S122
  binding against the reference: weaker

## Ace2 122-150 (from UniProt P21192) pS122 peptide, λ-phosphatase treated
reference: pS122 peptide, untreated, sites S122
  binding against the reference: stronger

## Ace2 122-150 (from UniProt P21192) pS137 peptide
reference: unphosphorylated 122-150 peptide, sites S137
  binding against the reference: weaker

## Ace2 122-150 (from UniProt P21192) pS137 peptide, λ-phosphatase treated
reference: pS137 peptide, untreated, sites S137
  binding against the reference: stronger
